Source: publication PMC4363726 (Molecules and Cells, 2015)

B1: GST-AGL18 (natural protein, Arabidopsis thaliana, UniProt Q9M2K8 1-256, looked up)
chain: MGRGRIEIKKIENINSRQVTFSKRRNGLIKKAKELSILCDAEVALIIFSSTGKIYDFSSVCMEQILSRYGYTTASTEHKQQREHQLLICASHGNEAVLRNDDSMKGELERLQLAIERLKGKELEGMSFPDLISLENQLNESLHSVKDQKTQILLNQIERSRIQEKKALEENQILRKQVEMLGRGSGPKVLNERPQDSSPEADPESSSSEEDENDNEEHHSDTSLQLGLSSTGYCTKRKKPKIELVCDNSGSQVASD
B2: miR156a CArG I (dsDNA)
DNA 1: TGGTGAAAAACAATTAATAGAAAATTAATT
DNA 2: AATTAATTTTCTATTAATTGTTTTTCACCA
B3: miR156a CArG II (dsDNA)
DNA 1: ATATATCTTCCATAATTTTGCAAGTCTTTA
DNA 2: TAAAGACTTGCAAAATTATGGAAGATATAT
B4: miR156a CArG IV (dsDNA)
DNA 1: CAAGTTCATTGCCATTTTTAGGTCTCTCTA
DNA 2: TAGAGAGACCTAAAAATGGCAATGAACTTG
B5: miR156a CArG V (dsDNA)
DNA 1: CTTTTTTTTGCTTTTTATGGTTATGTTTTT
DNA 2: AAAAACATAACCATAAAAAGCAAAAAAAAG
B6: miR156c CArG III (dsDNA)
DNA 1: TTGTCGTTGCCGTTTATAGGTTATGAGATT
DNA 2: AATCTCATAACCTATAAACGGCAACGACAA
B7: miR156a CArG III (dsDNA)
DNA 1: ATAATAATAATCTAATTAAAGGAGATGAGA
DNA 2: TCTCATCTCCTTTAATTAGATTATTATTAT
B8: miR156a NC (dsDNA)
DNA 1: TAAGAGAGATAAAGAAAGCGACAAGAGCCA
DNA 2: TGGCTCTTGTCGCTTTCTTTATCTCTCTTA
B9: miR156c CArG I (dsDNA)
DNA 1: AAAAAAATTGCTATTTTTTGAAAATGTTAC
DNA 2: GTAACATTTTCAAAAAATAGCAATTTTTTT
B10: miR156c CArG II (dsDNA)
DNA 1: TGAATTAATTCTTAAAATTGTGAAATAATT
DNA 2: AATTATTTCACAATTTTAAGAATTAATTCA
B11: miR156c NC (dsDNA)
DNA 1: TTCAGACATCTGTCCCATTGCATGTAAGAG
DNA 2: CTCTTACATGCAATGGGACAGATGTCTGAA

Columns and labels:
AGL15-His = biological target: T1, AGL15-His (Arabidopsis thaliana, UniProt Q38847 1-268); assay: pull-down
T1 sequence (looked up): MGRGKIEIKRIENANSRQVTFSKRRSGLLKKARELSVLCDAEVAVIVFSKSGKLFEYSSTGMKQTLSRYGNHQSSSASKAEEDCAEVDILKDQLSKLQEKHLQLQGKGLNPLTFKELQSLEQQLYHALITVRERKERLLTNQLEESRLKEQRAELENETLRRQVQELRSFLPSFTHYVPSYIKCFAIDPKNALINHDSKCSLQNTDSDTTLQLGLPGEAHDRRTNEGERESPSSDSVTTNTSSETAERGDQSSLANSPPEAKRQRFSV

AGL15-GST [1] = biological target: T2, AGL15-GST (Arabidopsis thaliana, UniProt Q38847 1-268); assay: EMSA
T2 sequence: T1 sequence (looked up)

AGL15-GST [2] = biological target: T2, AGL15-GST; assay: competition

Binder | binding result (AGL15-GST [1]) | also measured
B1 |  | binding result (AGL15-His): binds
B2 | no binding | 
B3 | no binding | 
B4 |  | binding result (AGL15-GST [2]): binds
B5 |  | binding result (AGL15-GST [2]): binds
B6 |  | binding result (AGL15-GST [2]): binds
B7 | no binding | 
B8 | no binding | 
B9 | no binding | 
B10 | no binding | 
B11 | no binding | 
